Here are results for 2 substances from article PMC10028186.

This data set deals with Strep-msIHF (mycobacterial integration host factor) (Mycobacterium smegmatis mc2 155). Nature of the data set: BLI. As to conditions: BLI: PBS with 50 mM Tris-HCl pH 7.5, 150 mM NaCl, 0.1 mg/ml BSA, 0.05% Tween-20, 30 C. EMSA: 50 mM Tris-HCl pH 8, 150 mM NaCl, 10 mM Mg acetate, 0.02% …. In general terms: A gel shift assay detects complexes by their altered migration in electrophoresis.

Usually Kd stands for the free concentration of one partner at which half of the binding sites on the other are occupied at equilibrium, for simple one-to-one binding. Substance attB fragment yielded a Kd of 250 nM.
oriC fragment displayed a Kd of 270 nM.
